This note sets out measurements from PMC11083479, “A Multi-Faceted Binding Assessment of Aptamers Targeting the SARS-CoV-2 Spike Protein”.

Read-outs that look alike come from different tables or passages of the source.

Data set [1] concerns the target SARS-CoV-2 spike S1, WT, His-tag (SARS-CoV-2 (WT), UniProt P0DTC2 16-685). Kind of data set: BLI. The settings on record: protein: recombinant; tags: His; label: with or without biotin; SA-ATTO647N in flow cytometry. (In general: In flow cytometry, cells or beads pass a laser one at a time.)
Data set [2] has as its target T1, SARS-CoV-2 trimeric spike, WT, His-tag (SARS-CoV-2 (WT), UniProt P0DTC2 14-1208). Kind of data set: ELONA; abolished by 0.1 mg/mL dextran sulfate. The settings on record: protein: recombinant, tags: 8xHis (flow cytometry), chain copies: 3, label: with or without biotin, SA-ATTO647N in flow cytometry.
In data set [3] the target is SARS-CoV-2 spike RBD, WT, C-tag (SARS-CoV-2 (WT), UniProt P0DTC2 319-591). Kind of data set: BLI; BLI: PBS pH 7.4, 1 mM MgCl2 ([…]; flow cytometry 25 C ([…]. The settings on record: protein: recombinant; tags: C-tag; label: with or without biotin; SA-ATTO647N in flow cytometry. A general note: Biolayer interferometry detects binding as a change in optical thickness at a sensor tip.

Data set [4] deals with SARS-CoV-2 trimeric spike, WT, C-tag (SARS-CoV-2 (WT), UniProt P0DTC2 16-1208). The settings on record: protein: recombinant; tags: C-tag; chain copies: 3; label: with or without biotin; SA-ATTO647N in flow cytometry.
Data set [5] has as its target chemokine CCL17, untagged (human, UniProt Q92583 24-94). Kind of data set: ELONA; 200 nM aptamer; BLI: PBS pH 7.4, 1 mM MgCl2 (MSA aptamers: 50 mM HEPES pH 7.4, 6 mM KCl, 150 mM NaCl, 2.5 mM CaCl2, 2.5 mM MgCl2), 0.1 mg/mL BSA, 0.02% Tween-20; ELONA 25 C in. The settings on record: protein: recombinant; tags: none; label: with or without biotin; SA-ATTO647N in flow cytometry.

The target of data set [6] is T2, ACE2, His-tag (UniProt Q9BYF1 18-740). Described as above. To be noted: protein: recombinant; tags: His; label: with or without biotin; SA-ATTO647N in flow cytometry.
T2 sequence (Q9BYF1 18-740): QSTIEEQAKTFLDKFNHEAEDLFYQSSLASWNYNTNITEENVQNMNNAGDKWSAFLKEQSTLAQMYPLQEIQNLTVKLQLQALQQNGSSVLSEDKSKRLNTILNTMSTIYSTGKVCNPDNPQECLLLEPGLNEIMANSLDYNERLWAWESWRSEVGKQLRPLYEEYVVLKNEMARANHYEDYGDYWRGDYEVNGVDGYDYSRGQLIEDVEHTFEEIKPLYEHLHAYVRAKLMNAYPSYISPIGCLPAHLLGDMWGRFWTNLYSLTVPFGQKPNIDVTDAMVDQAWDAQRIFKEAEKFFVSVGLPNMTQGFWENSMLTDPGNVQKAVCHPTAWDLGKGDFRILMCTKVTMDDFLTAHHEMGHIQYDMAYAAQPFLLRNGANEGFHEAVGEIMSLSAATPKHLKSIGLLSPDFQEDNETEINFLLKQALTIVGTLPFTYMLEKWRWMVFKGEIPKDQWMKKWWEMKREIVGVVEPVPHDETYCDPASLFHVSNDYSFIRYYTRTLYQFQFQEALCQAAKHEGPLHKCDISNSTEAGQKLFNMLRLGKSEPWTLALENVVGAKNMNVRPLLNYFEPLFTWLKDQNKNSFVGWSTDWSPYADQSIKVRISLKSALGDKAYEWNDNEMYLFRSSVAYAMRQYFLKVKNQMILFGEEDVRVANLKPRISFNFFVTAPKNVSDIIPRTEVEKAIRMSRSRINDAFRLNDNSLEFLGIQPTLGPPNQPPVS
Data set [7] concerns the target T1, SARS-CoV-2 trimeric spike, WT, His-tag. The settings on record: protein: recombinant, tags: 8xHis (flow cytometry), chain copies: 3, label: with or without biotin, SA-ATTO647N in flow cytometry.
The target of data set [8] is SARS-CoV-2 spike RBD, WT, His-tag (SARS-CoV-2 (WT), UniProt P0DTC2 319-541). Kind of data set: BLI; BLI: PBS pH 7.4, 1 mM MgCl2 ([…]; flow cytometry 25 C ([…]. The settings on record: protein: recombinant; tags: His; label: with or without biotin; SA-ATTO647N in flow cytometry.
For data set [9], the target named is SARS-CoV-2 spike S1, WT, His-tag (SARS-CoV-2 (WT), UniProt P0DTC2 16-685). Kind of data set: BLI. The settings on record: protein: recombinant; tags: His.
For data set [10], the target named is T3, SARS-CoV-2 trimeric spike, WT, His-tag (SARS-CoV-2 (WT), UniProt P0DTC2). Description: ELONA. The settings on record: protein: recombinant; tags: 8xHis (flow cytometry); His.
For data set [11], the target named is SARS-CoV-2 spike RBD, WT, His-tag (SARS-CoV-2 (WT), UniProt P0DTC2 319-541). Kind of data set: BLI; BLI: PBS pH 7.4, 1 mM MgCl2 ([…]; flow cytometry 25 C ([…].
In data set [12] the target is SARS-CoV-2 trimeric spike, WT, C-tag (SARS-CoV-2 (WT), UniProt P0DTC2). The data set is described as above. To be noted: protein: recombinant; tags: C-tag.
Data set [13] has as its target T2, ACE2, His-tag. Description: ELONA. To be noted: protein: recombinant; tags: His; label: with or without biotin; SA-ATTO647N in flow cytometry.
Data set [14] deals with T3, SARS-CoV-2 trimeric spike, WT, His-tag. Kind of data set: BLI. To be noted: protein: recombinant; tags: 8xHis (flow cytometry); His.
The target is the same in data set [15]. Kind of data set: flow cytometry; 37 C; non-binding control. To be noted: protein: recombinant, tags: 8xHis (flow cytometry).
Data set [16] shares this target. Description: flow cytometry. To be noted: protein: recombinant, tags: 8xHis (flow cytometry).
In data set [17] the target is SARS-CoV-2 spike RBD, WT, C-tag (SARS-CoV-2 (WT), UniProt P0DTC2 319-591). Kind of data set: BLI; BLI: PBS pH 7.4, 1 mM MgCl2 ([…]; flow cytometry 25 C ([…].

Sequence of chemokine CCL17, untagged (Q92583 24-94): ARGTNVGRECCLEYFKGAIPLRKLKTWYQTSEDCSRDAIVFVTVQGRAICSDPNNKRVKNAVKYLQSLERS

B1: MSA5-T4 (ssDNA)
DNA: CTTCCACGGGTTTGGCGTCGGGCCTGGCGGGGGGATAGTGCGGTGGAAG
For B1, the binding result in data set [1] was “binds”; in [2] it was “binds”; in data set [3] it was “no binding”; in [4], “no binding”; in data set [5], “no binding”; in data set [6], “no binding”.

B2: CoV2-RBD-1C (ssDNA)
DNA: CAGCACCGACCTTGTGCTTTGGGAGTGCTGGTCCAAGGGCGTTAATGGACA
As to B2, the binding result is “binds” in [1], “binds” in data set [7], “no binding” in data set [3] and “binds” in data set [8].

B3: SP6.41 (ssDNA)
DNA: CAACCCATGGTAGGTATTGCTTGGTAGGGATAGTGGGCTTG
B3: the binding result in data set [9] was “no binding”; in [10], “binds”; in data set [11] it was “no binding”; in data set [12] it was “binds”.

B4: CoV2-RBD-4C (ssDNA)
DNA: ATCCAGAGTGACGCAGCATTTCATCGGGTCCAAAAGGGGCTGCTCGGGATTGCGGATATGGACACGT
On to B4, for which the binding result is recorded as “binds” in data set [1]; “binds” in [13]; “binds” in data set [7]; “no binding” in [3]; “binds” in data set [8].

B5: CoV2-6C3 (ssDNA)
DNA: CGCAGCACCCAAGAACAAGGACTGCTTAGGATTGCGATAGGTTCGG
Regarding B5, the binding result was “binds” in data set [1]; “binds” in [7]; “no binding” in data set [3]; “binds” in data set [8]; “binds” in [4].

B6: Aptamer-2 (ssDNA)
DNA: ATCCAGAGTGACGCAGCAATTACCGATGGCTTGTTTGTAATGTAGGGTTCCGTCGGATTGGACACGGTGGCTTAGT
For the molecule B6, the binding result in data set [9] is on record as “binds”; in [14] it was “binds”; in data set [11], “binds”; in data set [12] it was “no binding”.

B7: SP6.34C (ssDNA)
DNA: CCCATGGTAGGTATTGCTTGGTAGCGATAGTGGG
For the molecule B7, the binding result in data set [15] is “no binding”.

B8: RBD-PB6 (XNA)
RNA: GGGGCCACCAACGACAUUUGUAAUUCCUGGACCGAUACUUCCGUCAGGACAGAGGUUGAUAUAAAUAGUGCCCAUGGAUCC
modifications: 2'-F-modified RNA
For the molecule B8, the binding result in data set [9], in [16], in [11], in [17] and in [12] was “binds” each time.

B9: MSA1-T3 (ssDNA)
DNA: TCCGGTTAATTTATGCTCTACCCGTCCACCTACCGGA
For the molecule B9, the binding result in [14] is “binds”; in data set [11] it was “no binding”; in data set [12], “no binding”.

B10: nCoV-S1-A2 (ssDNA)
DNA: AGCAGCACAGAGGTCAGATGGCAGCTAAGCAGGCGGCTCACAAAACCATTCGCATGCGGCCCTATGCGTGCTACCGTGAA
Consider B10, for which, in data set [11], the binding result is reported as “no binding”.

B11: Aptamer-1 (ssDNA)
DNA: ATCCAGAGTGACGCAGCATCGAGTGGCTTGTTTGTAATGTAGGGTTCCGGTCGTGGGTTGGACACGGTGGCTTAGT
Turning to B11, the binding result is listed as “binds” in data set [9], “binds” in data set [14], “binds” in data set [11] and “no binding” in [12].
